Molecular target: RFP-p62 (UniProt Q13501)
Assay: co-IP; COS-7 cells cotransfected with HTT fragment and RFP-p62, 100 nM bafilomycin for 4 h; lysates in SDP buffer; p62 immunoprecipitated (anti-p62 MBL PM045) overnight at 4 °C; co-precipitated HTT blotted and normalised to input

fold binding relative to cleavable mHTT: 2 fold
Substance: HTT aa1-1212 138Q-C6R (domain or fragment)

Source: paper PMC5839066
